This is an account of results in article PMC12107181 (2025).

B1: AD-TCP3 [Arabidopsis] / BD-COP1 [Arabidopsis] (parent complex)
chain 1: MAPDNDHFLDSPSPPLLEMRHHQSATENGGGCGEIVEVQGGHIVRSTGRKDRHSKVCTAKGPRDRRVRLSAPTAIQFYDVQDRLGFDRPSKAVDWLITKAKSAIDDLAQLPPWNPADTLRQHAAAAANAKPRKTKTLISPPPPQPEETEHHRIGEEEDNESSFLPASMDSDSIADTIKSFFPVASTQQSYHHQPPSRGNTQNQDLLRLSLQSFQNGPPFPNQTEPALFSGQSNNQLAFDSSTASWEQSHQSPEFGKIQRLVSWNNVGAAESAGSTGGFVFASPSSLHPVYSQSQLLSQRGPLQSINTPMIRAWFDPHHHHHHHQQSMTTDDLHHHHPYHIPPGIHQSAIPGIAFASSGEFSGFRIPARFQGEQEEHGGDNKPSSASSDSRH
chain 2: MEEISTDPVVPAVKPDPRTSSVGEGANRHENDDGGSGGSEIGAPDLDKDLLCPICMQIIKDAFLTACGHSFCYMCIITHLRNKSDCPCCSQHLTNNQLYPNFLLDKLLKKTSARHVSKTASPLDQFREALQRGCDVSIKEVDNLLTLLAERKRKMEQEEAERNMQILLDFLHCLRKQKVDELNEVQTDLQYIKEDINAVERHRIDLYRARDRYSVKLRMLGDDPSTRNAWPHEKNQIGFNSNSLSIRGGNFVGNYQNKKVEGKAQGSSHGLPKKDALSGSDSQSLNQSTVSMARKKRIHAQFNDLQECYLQKRRQLADQPNSKQENDKSVVRREGYSNGLADFQSVLTTFTRYSRLRVIAEIRHGDIFHSANIVSSIEFDRDDELFATAGVSRCIKVFDFSSVVNEPADMQCPIVEMSTRSKLSCLSWNKHEKNHIASSDYEGIVTVWDVTTRQSLMEYEEHEKRAWSVDFSRTEPSMLVSGSDDCKVKVWCTRQEASVINIDMKANICCVKYNPGSSNYIAVGSADHHIHYYDLRNISQPLHVFSGHKKAVSYVKFLSNNELASASTDSTLRLWDVKDNLPVRTFRGHTNEKNFVGLTVNSEYLACGSETNEVYVYHKEITRPVTSHRFGSPDMDDAEEEAGSYFISAVCWKSDSPTMLTANSQGTIKVLVLAA
B2: AD-PAP2 [Arabidopsis] / BD-COP1 [Arabidopsis] (parent complex)
chain 1: MEGSSKGLRKGAWTAEEDSLLRLCIDKYGEGKWHQVPLRAGLNRCRKSCRLRWLNYLKPSIKRGRLSNDEVDLLLRLHKLLGNRWSLIAGRLPGRTANDVKNYWNTHLSKKHESSCCKSKMKKKNIISPPTTPVQKIGVFKPRPRSFSVNNGCSHLNGLPEVDLIPSCLGLKKNNVCENSITCNKDDEKDDFVNNLMNGDNMWLENLLGENQEADAIVPEATTAEHGATLAFDVEQLWSLFDGETVELD
chain 2: B1 chain 2
B3: AD-TCP10 [Arabidopsis] / BD-COP1 [Arabidopsis] (parent complex)
chain 1: MGLKGYSVGEGGGEIVEVQGGHIIRATGRKDRHSKVFTSKGPRDRRVRLSAHTAIQFYDVQDRLGYDRPSKAVDWLIKKAKTAIDKLELGETTTTTTRQEPVNTKPESPTLVFQRENNDQTQFVAANLDPEDAMKTFFPATTTTNGGGGTNINFQNYPHQDDNNMVSRTTTPPPNLSQDLGLSLHPFQGNNNTVVVPETNNFTTTHFDTFGRISGWNHHDLTMTSSSSSEHQQQEQEERSNGGFMVNHHPHHHHHQPSMMTLLNSQQQQVFLGGQQQQQQRGTLQSSLFPHSFRSWDHHQTTSDHHHHQNQASSMFASSSQYGSHGMMMMQGLSFPNTTRLLHGEEATQPNSSSSPPNSHL
chain 2: B1 chain 2

Variants of B1 are the subject of the first assay. The assay is described as follows: Y2H assay (β-galactosidase activity); parent: 2.7; read off a plot.
Turning to chain 2 F595A, the response is ~0.86 Miller units.

In another assay the parent is B1. The assay is described as follows: Y2H assay (β-galactosidase activity); parent: 3; read off a plot.
For chain 2 W467A, the response is ~0.86 Miller units.

Another assay covers variants of B2. Kind of assay: Y2H assay (β-galactosidase activity); parent: 15; read off a plot.
As to chain 2 W467A, the response is ~2.1 Miller units.

In another assay the parent is B2. Kind of assay: Y2H assay (β-galactosidase activity); parent: 21; read off a plot.
In the case of chain 2 F595A, the response was ~3.6 Miller units.

In a further assay the parent is B3. Kind of assay: Y2H assay (β-galactosidase activity); parent: 0.92; read off a plot.
For the variant chain 1 MGLKGYSVGEGGGEIVEVQGGHIIRATGRKDRHSKVFTSKGPRDRRVRLSAHTAIQFYDVQDRLGYDRPSKAVDWLIKKAKTAIDKLELGETTTTTTRQEPVNTKPESPTLVFQRENNDQTQFVAANLDPEDAMKTFFPATTTTNGGGGTNINFQNYPHQDDNNMVSRTTTPPPNLSQDLGLSLHPFQGNNNTVVAAETNNFTTTHFDTFGRISGWNHHDLTMTSSSSSEHQQQEQEERSNGGFMVNHHPHHHHHQPSMMTLLNSQQQQVFLGGQQQQQQRGTLQSSLFPHSFRSWDHHQTTSDHHHHQNQASSMFASSSQYGSHGMMMMQGLSFPNTTRLLHGEEATQPNSSSSPPNSHL [chain 1 V196A, chain 1 P197A], the response was ~1.1 Miller units.
